“Also recorded” adds a separate entry of the source. Like-named read-outs stand apart in the source and are kept apart here.
Assays:
[1] = tested on: Pseudomonas aeruginosa strain CFS-1292 (meropenem resistant); conditions: strain CFS-1292; no added cations
Method: The activity of selected GN lysins and constructs in the presence of divalent cations was evaluated, and the impact of divalent cations at physiological concentrations was examined in the MIC assay format.

[2] = tested on: P. aeruginosa isolates; test: MIC against a range of isolates in CAA + […] human serum (Table 11); format: cell-based, Pseudomonas aeruginosa
[3] = tested on: Pseudomonas aeruginosa strain CFS-1292 (meropenem resistant); test: MIC in 25% CAA alone, with […] human serum or […] SURVANTA (Table 13); format: cell-based
Method: (§1) Materials and methods: MICs were determined by broth microdilution in media supplemented with human serum and pulmonary surfactant ([…]®; Myoderm Clinical Supplies). Minimal biofilm eradicating concentrations (MBECs) were determined using standard methods. […] Fluorescence microscopy was performed after LIVE/DEAD staining (ThermoFisher) and TEM was performed.

[4] = tested on: Pseudomonas aeruginosa biofilm; test: MBEC in CAA supplemented with […] human serum (Table 14); format: cell-based
Method: Biofilms are then washed and treated with e.g., a 2-fold dilution series of the lysin in TSBg at e.g., 37° C. for 24 hours. After treatment, wells are washed, air-dried at e.g., 37° C. and stained with e.g., 0.05% crystal violet for 10 minutes.
as §1

[5] = tested on: outer membrane of P. aeruginosa (CFS 1292); test: N-phenyl-1-napthylamine (NPN) uptake assay, outer membrane destabilization (Table 15); format: cell-based, Pseudomonas aeruginosa; conditions: NPN fluorescence, buffer = 100, lysin 100 μg/well
Method: The ability of gram-negative lysins to destabilize the outer membrane of P. aeruginosa was evaluated through the use of an N-phenyl-1-napthylamine (NPN) uptake assay. […] NPN was added to a final concentration of […]. […] Changes in fluorescence were recorded (excitation 1=350 nm; emission 1=420 nm) over two hours.

[6] = tested on: P. aeruginosa strains; test: Checkerboard synergy with meropenem in 25% CAA and […] human serum (Table 16); format: cell-based, Pseudomonas aeruginosa; conditions: for FICI value (Run #1), with meropenem / FICI value (Run #2), with meropenem: 25% CAA and […] human serum
[7] = tested on: carbapenem-resistant P. aeruginosa strains; test: Resensitization of carbapenem-resistant strains, combinations with imipenem or meropenem (Tables 18-22); format: cell-based, Pseudomonas aeruginosa; conditions: for FICI: isolate WC-452
[8] = tested on: P. aeruginosa PA20 recovered from rabbit lung homogenates; format: cell-based, Pseudomonas aeruginosa; conditions: for number of isolates with GN370 MIC 1 μg/mL / number of isolates with GN370 MIC 2 μg/mL: n=48
[9] = tested on: P. aeruginosa (PA20); test: Rabbit infective endocarditis model (Tables 28-32, FIGS. 5-8); format: in vivo, Pseudomonas aeruginosa in rabbits
Method: Initially, a polyethylene catheter was placed into the rabbits' right ventricle and secured. 48 hours after catheter placement, rabbits were infected intravenously with P. aeruginosa (PA20) (6×10^9 CFU/mL). Treatment commenced 24 hours post-infection.
Data were analyzed using the Kruskal-Wallis method for multiple comparison and then adjusted with a false discovery rate approach (Benjamini-Hochberg method), using StatsDirect Software. A p-value of <0.05 was considered statistically significant.

[10] = isolates from GN370 (3 mg/kg) + Meropenem (20 mg/kg) group
[11] = isolates from GN370 (30 mg/kg) + Meropenem (20 mg/kg) group
[12] = isolates from GN370 (30 mg/kg) group
[13] = isolates from Vehicle control group
[14] = single dose of GN370 + meropenem

B1: GN370: lysin-AMP construct: MIDR, FIRL and NPTH moieties N-terminal to GN202 lysin (SEQ ID NO: 44) (protein)
chain: MIDRFIRLNPTHGPRRPRRPGRRAPVRTSQRGIDLIKSFEGLRLSAYQDSVGVWTIGYGTTRGVTRYMTITVEQAERMLSNDIQRFEPELDRLAKVPLNQNQWDALMSFVYNLGAANLASSTLLDLLNKGDYQGAADQFPHWVNAGGKRLDGLVKRRAAERALFLEPLS
- MIC in 25% CAA [1]: 4 µg/mL
- activity against P. aeruginosa isolates in human serum or SURVANTA ([2]; Tables 11 and 12): active against a variety of P. aeruginosa isolates
- MIC, CAA + […] Human Serum ([2]; strain CFS 1109 (ATCC 17646)): 1 µg/mL
- MIC, CAA + […] Human Serum ([2]; strain CFS 1292): 2 µg/mL
- MIC, CAA + […] Human Serum ([2]; strain CFS1539 (PA1)): 1 µg/mL
- MIC, CAA + […] Human Serum ([2]; strain CFS 1540 (PA2)): 1 µg/mL
- MIC, CAA + […] Human Serum ([2]; strain CFS 1541 (PA3)): 1 µg/mL
- MIC, CAA + […] Human Serum ([2]; strain CFS 1557 (PA19)): 4 µg/mL
- MIC, CAA + […] Human Serum ([2]; strain CFS 1558 (PA20)): 0.5 µg/mL
- MIC, CAA + […] Human Serum ([2]; strain CFS 1559 (PA21)): 2 µg/mL
- MIC, CAA + […] Human Serum ([2]; strain CFS 1560 (PA22)): 2 µg/mL
- MIC, CAA + […] Human Serum ([2]; strain CFS 1561 (PA23)): 2 µg/mL
- MIC, CAA + […] Human Serum ([2]; strain CFS 1562 (PA24)): 2 µg/mL
- MIC, CAA + […] Human Serum ([2]; strain CFS 1596 (PA26)): 1 µg/mL
- MIC, CAA + […] Human Serum ([2]; strain CFS 1597 (PA27)): 0.5 µg/mL
- MIC, CAA + […] Human Serum ([2]; strain CFS 1669 (PA41)): 2 µg/mL
- MIC, CAA + […] Human Serum ([2]; strain CFS 1674 (PA46)): 2 µg/mL
- MIC, CAA + […] Human Serum ([2]; strain CFS 1675 (PA47)): 1 µg/mL
- MIC, CAA + […] Human Serum ([2]; strain CFS 1766 (ATCC 27853)): 4 µg/mL
- MIC in […] Survanta [3]: 2 µg/mL
- MIC in human serum ([…]) in CAA [3]: 2 µg/mL
- activity in human serum and pulmonary surfactant [3]: active in human serum and pulmonary surfactant
- 25% CAA MIC ([3]; media alone): 4
- MBEC in CAA supplemented with […] human serum [4]: 1 µg/mL
- % RFU ([5]; 5 minutes): 205 % RFU
- % RFU ([5]; 10 minutes): 217 % RFU
- % RFU ([5]; 20 minutes): 213 % RFU
- % RFU ([5]; 40 minutes): 198 % RFU
- % RFU ([5]; 60 minutes): 193 % RFU
- % RFU ([5]; 100 minutes): 184 % RFU
- synergy with meropenem ([6]; FICI less than or equal to 0.5 = potent synergy): exhibited synergy with meropenem
- FICI value (Run #1), with meropenem ([6]; strain CFS 1292): 0.1875
- FICI value (Run #2), with meropenem ([6]; strain CFS 1292): 0.219
- FICI value (Run #1), with meropenem ([6]; strain CFS 1557 (PA19)): 0.1875
- FICI value (Run #2), with meropenem ([6]; strain CFS 1557 (PA19)): 0.240
- FICI value (Run #1), with meropenem ([6]; strain CFS 1558 (PA20)): 0.09375
- FICI value (Run #2), with meropenem ([6]; strain CFS 1558 (PA20)): 0.109
- FICI value (Run #2), with meropenem ([6]; strain CFS 1559 (PA21)): 0.438
- FICI value (Run #2), with meropenem ([6]; strain CFS 1560 (PA22)): 0.198
- FICI value (Run #2), with meropenem ([6]; strain CFS 1561 (PA23)): 0.240
- FICI value (Run #2), with meropenem ([6]; strain CFS 1562 (PA24)): 0.240
- FICI value (Run #2), with meropenem ([6]; strain CFS 1766 (ATCC 27853)): 0.156
- resensitization to carbapenems in synergistic combinations ([7]; imipenem (IPM) and meropenem (MEM), carbapenem-resistant isolates): reductions of IPM and MEM MICS to below breakpoint values
- FICI ([7]; lysin + imipenem): 0.094
- FICI ([7]; lysin + meropenem): 0.125
- Antibiotic MIC / Lysin MIC, Alone ([7]; vs. WC-452 (Table 22)): 2
- ex vivo resistance / increase in MIC of isolates recovered from rabbit lung ([8]; all treatment groups of the rabbit pulmonary model): not observed; also recorded: no increase in MIC
- number of isolates with GN370 MIC 1 μg/mL [8, 10]: 34
- number of isolates with GN370 MIC 2 μg/mL [8, 10]: 14
- number of isolates with GN370 MIC 2 μg/mL ([8]; isolates from GN370 (3 mg/kg) group): 16
- number of isolates with GN370 MIC 1 μg/mL ([8]; isolates from GN370 (10 mg/kg) + Meropenem (20 mg/kg) group): 48
- number of isolates with GN370 MIC 2 μg/mL ([8]; isolates from GN370 (10 mg/kg) group): 16
- number of isolates with GN370 MIC 1 μg/mL [8, 11]: 35
- number of isolates with GN370 MIC 2 μg/mL [8, 11]: 13
- number of isolates with GN370 MIC 1 μg/mL [8, 12]: 16
- number of isolates with GN370 MIC 2 μg/mL [8, 12]: 32
- number of isolates with GN370 MIC 2 μg/mL ([8]; isolates from Meropenem (20 mg/kg) group): 16
- number of isolates with GN370 MIC 2 μg/mL ([8]; isolates from Pre-treatment control group): 48
- number of isolates with GN370 MIC 1 μg/mL [8, 13]: 13
- number of isolates with GN370 MIC 2 μg/mL [8, 13]: 35
- change of cardiac vegetations counts vs untreated controls ([9]; meropenem + 3 mg/kg GN370): −1.3 log10 CFU/g
- change of cardiac vegetations counts vs vehicle-treated controls ([9]; meropenem + 3 mg/kg GN370): −0.8 log10 CFU/g
- change of cardiac vegetations counts vs untreated controls ([9]; meropenem + 10 mg/kg GN370): −1.1 log10 CFU/g
- change of cardiac vegetations counts vs vehicle-treated controls ([9]; meropenem + 10 mg/kg GN370): −0.5 log10 CFU/g
- P. aeruginosa densities in kidney, spleen and lung vs meropenem alone ([9]; meropenem + GN370 at all doses): −0.6 to−2.2 log10 CFU/g
- P. aeruginosa densities in kidney, spleen and lung vs untreated control ([9]; meropenem + GN370 at all doses): −2.0 to−3.6 log10 CFU/g
- P. aeruginosa densities in kidney, spleen and lung vs vehicle ([9]; meropenem + GN370 at all doses): −1.7 to−3.2 log10 CFU/g
- CFU reduction in cardiac vegetation tissues [9, 14]: about 1 log kill
- CFU reduction in kidney, spleen and lung tissues [9, 14]: about 3 log kill
- CFU reduction in cardiac vegetations ([9]; three days of GN370 at 10 mg/kg + 5 mg/kg meropenem, compared to both the start of treatment and a vehicle control): > 2 log CFU

From patent US20210324359A1, “USE OF GRAM-NEGATIVE LYSIN-ANTIMICROBIAL PEPTIDE (AMP) POLYPEPTIDE CONSTRUCTS IN TREATING ENDOCARDITIS” (priority 2020, published 2021)
